pEC50: −log10 of the molar value.
What was measured:
kallikrein [1] = target: T1, kallikrein (Homo sapiens, UniProt P03952); assay: C1 INH activity assay: inhibition of kallikrein activity; assay type: biochemical; conditions: lower EC50 = higher activity
Method: (§1) C1 INH activity was measured by the inhibition of C1 esterase and kallikrein activities. For the inhibition of C1 esterase activity, samples, standards, and controls were added to 96-well plate, and then C1-esterase was added. After 10 min incubation at 37° C., substrate of C1-eserasse was added. C1-esterase activity for cleavage of the substrate was monitored at 37° C. for 4 minutes kinetically. The higher C1 INH activity results in the lower C1 esterase activity or the lower cleavage rate of substrate. For the inhibition of kallikrein activity, EC50 was used to evaluate PEG-C1 INH activity. Lower EC50 value indicates higher activity of kallikrein inhibition.
Target sequence in this assay (P03952 20-638): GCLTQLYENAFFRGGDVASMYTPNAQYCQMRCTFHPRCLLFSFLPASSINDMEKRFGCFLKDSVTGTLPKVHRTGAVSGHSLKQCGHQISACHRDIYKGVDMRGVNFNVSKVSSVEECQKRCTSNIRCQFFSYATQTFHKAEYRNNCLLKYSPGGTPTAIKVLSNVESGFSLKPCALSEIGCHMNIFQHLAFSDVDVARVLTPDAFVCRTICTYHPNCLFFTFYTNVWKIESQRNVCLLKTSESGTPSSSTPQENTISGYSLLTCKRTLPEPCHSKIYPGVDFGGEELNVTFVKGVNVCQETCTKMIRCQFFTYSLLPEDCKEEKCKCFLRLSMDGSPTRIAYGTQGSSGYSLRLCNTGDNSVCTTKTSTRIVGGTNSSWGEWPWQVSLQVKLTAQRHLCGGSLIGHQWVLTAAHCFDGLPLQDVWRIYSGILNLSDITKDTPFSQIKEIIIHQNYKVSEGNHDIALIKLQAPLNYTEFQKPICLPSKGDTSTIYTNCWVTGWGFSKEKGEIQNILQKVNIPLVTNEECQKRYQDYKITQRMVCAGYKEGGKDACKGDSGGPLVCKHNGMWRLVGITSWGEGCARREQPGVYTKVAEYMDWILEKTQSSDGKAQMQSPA

C1 esterase [2] = target: T2, C1 esterase (Homo sapiens, UniProt P09871); assay: C1 INH activity assay: inhibition of C1 esterase activity; assay type: biochemical; conditions: for Activity of C1 Esterase inhibition U/mg: 96-well plate, 37° C., kinetic substrate cleavage
T2 sequence (P09871 16-688): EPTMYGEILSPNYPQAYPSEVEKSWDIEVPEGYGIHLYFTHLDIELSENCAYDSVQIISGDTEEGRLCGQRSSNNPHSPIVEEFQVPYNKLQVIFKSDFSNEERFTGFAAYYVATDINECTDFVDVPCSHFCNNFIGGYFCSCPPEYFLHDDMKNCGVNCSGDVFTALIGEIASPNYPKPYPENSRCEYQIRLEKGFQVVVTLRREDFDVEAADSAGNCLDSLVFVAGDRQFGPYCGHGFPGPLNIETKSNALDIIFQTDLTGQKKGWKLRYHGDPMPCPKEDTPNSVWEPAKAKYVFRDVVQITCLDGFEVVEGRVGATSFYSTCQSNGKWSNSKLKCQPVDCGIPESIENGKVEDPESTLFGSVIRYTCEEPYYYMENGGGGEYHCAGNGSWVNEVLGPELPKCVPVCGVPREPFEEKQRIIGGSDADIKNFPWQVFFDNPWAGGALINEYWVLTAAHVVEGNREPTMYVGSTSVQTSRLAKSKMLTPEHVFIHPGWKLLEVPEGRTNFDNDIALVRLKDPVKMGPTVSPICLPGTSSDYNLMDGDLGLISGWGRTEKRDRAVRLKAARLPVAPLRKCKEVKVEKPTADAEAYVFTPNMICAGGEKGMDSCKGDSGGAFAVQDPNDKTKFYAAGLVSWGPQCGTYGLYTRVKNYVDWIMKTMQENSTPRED
Method: as §1

[3] = Conjugate stability on SDS gel (heating, reduction, acid treatment); assay type: physicochemical
Method: The concentration of PEGylated C1 INH was determined by UV at 280 nm (extinction coefficient of C1 INH was 0.39 mL/mg·cm). Sample at 5 μg or 10 μg was loaded into the gel without sample reduction and heating for electrophoresis. In a separate experiment, the samples were heated at 70° C. for 7 minutes in the presence or absence of 75 mM β-mercaptoethanol in gel buffer. There was no evidence of conjugate breakdown under such conditions. […] The protein bands were visualized after simple blue stain. The density of the image was obtained on Molecular Dynamics. […] There were eight PEG (20 or 30k) strands attached per C1 INH as analyzed SEC-MALS.

kallikrein [4] = target: T1, kallikrein; assay: cell-based or functional assay
Target sequence in this assay (P03952 20-638 limits assumed): as the sequence (P03952 20-638) above

C1 esterase [5] = target: T3, C1 esterase (UniProt P09871); assay: cell-based or functional assay
T3 sequence (looked up): T2 sequence (P09871 16-688)

PEG-20k-Glycan-C1 INH (5 mg scale), sequence (P05155 23-500 limits assumed): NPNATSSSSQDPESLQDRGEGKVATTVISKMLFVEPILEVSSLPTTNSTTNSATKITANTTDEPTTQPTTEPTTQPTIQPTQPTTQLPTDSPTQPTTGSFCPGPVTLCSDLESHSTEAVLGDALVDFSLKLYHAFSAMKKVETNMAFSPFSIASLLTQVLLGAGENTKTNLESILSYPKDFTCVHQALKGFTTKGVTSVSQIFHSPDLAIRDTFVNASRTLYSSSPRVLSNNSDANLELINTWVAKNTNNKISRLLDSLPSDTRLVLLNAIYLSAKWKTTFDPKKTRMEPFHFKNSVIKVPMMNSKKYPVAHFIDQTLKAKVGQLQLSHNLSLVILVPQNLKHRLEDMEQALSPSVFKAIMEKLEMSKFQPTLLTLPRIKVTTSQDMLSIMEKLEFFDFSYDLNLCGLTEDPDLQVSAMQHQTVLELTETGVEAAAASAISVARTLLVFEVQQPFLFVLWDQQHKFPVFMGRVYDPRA
C1 Esterase Inhibitor (C1 INH), native, sequence (P05155 23-500 limits assumed): as above
PEG-20k-Glycan-C1 INH (60 mg scale), sequence (P05155 23-500 limits assumed): as above

Row | Substance | pEC50 (kallikrein [1]) | Activity of C1 Esterase inhibition U/mg (C1 esterase [2]) | Activity of Kallikrein inhibition, % C1 INH activity (kallikrein [4]) | Activity of Kallikrein inhibition, EC50 (kallikrein [4]) | Activity of C1 Esterase inhibition, % C1 INH activity (C1 esterase [5]) | Activity of C1 Esterase inhibition, U/mg (C1 esterase [5]) | further results
1 | PEG-20k-Glycan-C1 INH (60 mg scale): C1 INH oxidized with periodate at glycan and conjugated with PEG-hydrazide 20k; eight PEG strands per C1 INH | 6.52 | 5.1 U/mg |  |  |  |  | % C1 INH activity on C1 esterase inhibition, small scale (C1 esterase [2]; small scale batch, relative to native C1 INH): 97%; Stability of conjugate under acidic conditions ([3]; 0.1% TFA or sodium acetate, pH 4.7): releasable; Stability of conjugate to heating and reducing at neutral pH ([3]; 70° C. for 7 minutes, with or without 75 mM β-mercaptoethanol, SDS gel): stable
2 | C1 Esterase Inhibitor (C1 INH), native (from UniProt P05155 23-500) |  |  | 100% | 200 nM | 100% | 7 U/mg | 
3 | PEG-20k-Glycan-C1 INH (5 mg scale) (from UniProt P05155 23-500) |  |  |  |  | 94% | 6.6 U/mg | % C1 INH activity on C1 esterase inhibition (small scale) (C1 esterase [5]): 97%
4 | PEG-20k-Glycan-C1 INH (60 mg scale) (from UniProt P05155 23-500) |  |  | 67% | 300 nM | 73% | 5.1 U/mg | 

Further lines, with some results ahead:

Row | pEC50 (kallikrein [1]) | Activity of C1 Esterase inhibition U/mg (C1 esterase [2]) | Activity of Kallikrein inhibition, % C1 INH activity (kallikrein [4]) | Activity of Kallikrein inhibition, EC50 (kallikrein [4]) | Activity of C1 Esterase inhibition, % C1 INH activity (C1 esterase [5]) | Activity of C1 Esterase inhibition, U/mg (C1 esterase [5]) | Substance | further results
5 | 6.70 | 7.0 U/mg |  |  |  |  | C1 INH: C1 Esterase Inhibitor obtained from Athens Research & Technology, MW 73000 Da by MALDI; unmodified reference protein | 
6 |  | 6.6 U/mg |  |  |  |  | PEG-20k-Glycan-C1 INH (5 mg scale): Same PEG-20k-hydrazide glycan conjugate of C1 INH prepared at 5 mg scale; PEG number pending | 

From patent US20140315826A1, “POLYMERIC CONJUGATES OF C-1 INHIBITORS” (Belrose Pharma, Inc., priority 2012, published 2014)
